Experimental data as given in paper PMC8261865, “A Structural View on the Stereospecificity of Plant Borneol‐Type Dehydrogenases” (Chemcatchem, 2021).
Each block holds one molecule with its values, some of them ahead of it.

Columns and labels:
[1] = target: T1, AaADH2 (Artemisia annua, UniProt E5DD06); test: spectrophotometric cofactor use; format: biochemical
T1 construct: gene Adh2
T1 sequence (E5DD06 1-265): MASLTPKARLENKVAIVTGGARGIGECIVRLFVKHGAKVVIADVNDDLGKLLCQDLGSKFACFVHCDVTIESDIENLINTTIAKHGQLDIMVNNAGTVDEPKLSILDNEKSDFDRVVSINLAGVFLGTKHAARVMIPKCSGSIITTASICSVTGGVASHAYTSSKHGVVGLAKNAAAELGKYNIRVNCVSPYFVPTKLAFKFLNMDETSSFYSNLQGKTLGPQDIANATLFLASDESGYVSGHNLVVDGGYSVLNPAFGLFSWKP

[2] = target: Borneol-type dehydrogenase 1 from Salvia rosmarinus (Salvia rosmarinus); test: SEC; HiLoad 16/60 Superdex 200; Tris-HCl 100 mM, 500 mM NaCl, pH 8; 1 mL/min; calibrated with mass standards (44-440 kDa)
[3] = target: Borneol-type dehydrogenase 1 from Salvia rosmarinus (Salvia rosmarinus); test: crystal structure; sitting-drop vapor diffusion at 18 °C; two conditions: high NaCl (2.7-3.2 M, Bis-Tris pH 5.5-7.2) and pentaerythritol propoxylate (PO/OH, HEPES pH 7.0-7.8); tetramer in both
[4] = target: Borneol-type dehydrogenase 1 from Salvia rosmarinus (Salvia rosmarinus); test: SEC-MALS; Superdex 200 increase 10/300 with miniDAWN TREOS and refractive index detector; 18 °C
[5] = target: Borneol-type dehydrogenase 2 from Salvia rosmarinus (Salvia rosmarinus); test: SEC; HiLoad 16/60 Superdex 200; Tris-HCl 100 mM, 500 mM NaCl, pH 8; 1 mL/min; calibrated with mass standards (44-440 kDa)
[6] = target: Borneol-type dehydrogenase 3 from Salvia officinalis (Salvia officinalis L.); test: as above
[7] = target: T2, SrBDH1 (Salvia rosmarinus, UniProt A0A8K1HPF5); test: X-ray crystal structure of binary complex ([…] Å); format: binding; conditions: NAD+ co-purified with the enzyme; two crystal forms (high salt; PO/OH)
T2 construct: N-terminal His-tag (pET15b), codon-optimised, E. coli BL21(DE3); homotetramer by SEC/MALS
T2 sequence (A0A8K1HPF5 1-270): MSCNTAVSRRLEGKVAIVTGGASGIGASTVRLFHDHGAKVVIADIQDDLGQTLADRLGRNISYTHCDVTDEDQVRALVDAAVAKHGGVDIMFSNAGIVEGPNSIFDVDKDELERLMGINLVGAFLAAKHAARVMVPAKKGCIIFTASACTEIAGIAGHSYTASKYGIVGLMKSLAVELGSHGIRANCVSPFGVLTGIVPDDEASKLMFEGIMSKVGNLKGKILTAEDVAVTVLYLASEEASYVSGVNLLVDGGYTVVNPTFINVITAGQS

stoichiometry N [2]: 4
stoichiometry N [3]: 4
stoichiometry N [4]: 4
Molecule: Borneol-type dehydrogenase 1 from Salvia rosmarinus (enzyme)

stoichiometry N [5]: 4
Molecule: Borneol-type dehydrogenase 2 from Salvia rosmarinus (enzyme)

Second part, the molecule before the results:

Molecule: NC(=O)c1ccc[n+]([C@@H]2O[C@H](COP(=O)(O)OP(=O)(O)OC[C@H]3O[C@@H](n4cnc5c(N)ncnc54)[C@H](OP(=O)(O)O)[C@@H]3O)[C@@H](O)[C@H]2O)c1 [NADP^+]
spectrophotometric cofactor use [1]: AaADH2 was the only enzyme also capable of using NADP^+

Molecule: Borneol-type dehydrogenase 3 from Salvia officinalis (enzyme)
stoichiometry N [6]: 4

Molecule: NC(=O)c1ccc[n+]([C@@H]2O[C@H](COP(=O)(O)OP(=O)(O)OC[C@H]3O[C@@H](n4cnc5c(N)ncnc54)[C@H](O)[C@@H]3O)[C@@H](O)[C@H]2O)c1 [NAD^+]
X-ray crystal structure of binary complex (2.8 Å) [7]: the structure represents the binary complex (SrBDH1 ⋅ NAD^+ /high salt)
